# Measurements reported in the supplement of paper PMC9112550, “Optimization of the antimicrobial peptide Bac7 by deep mutational scanning” (BMC Biology, 2022).
# System: Escherichia coli TOP10
# Test: shrunken log2 fold change of peptide-encoding DNA abundance (4.5 h post-induction vs induction); higher = less antimicrobial activity (less host growth inhibition)
# Conditions: time post-induction: 4.5 h; library: site-saturation at positions 5, 18, 19, 20
# 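Also: peptides expressed intracellularly from a pBAD plasmid library in pooled LB shake-flask culture, induced with 0.3% L-arabinose, DNA abundance read by NGS, three biological replicates, DESeq2 with apeglm shrinkage.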
row,Sequence,shrunken log2 fold change
1,RRIRMRPPRLPRPRPRPVGHPRP,0.193
2,RRIRWRPPRLPRPRPRPFCAPRP,0.23
3,RRIRDRPPRLPRPRPRPRADPRP,0.65
4,RRIRYRPPRLPRPRPRPFLGPRP,-0.0439
5,RRIRERPPRLPRPRPRPYTDPRP,-0.956
6,RRIRFRPPRLPRPRPRPATDPRP,-0.0766
7,RRIRGRPPRLPRPRPRPQCKPRP,0.165
8,RRIRERPPRLPRPRPRPRDMPRP,0.0375
9,RRIRQRPPRLPRPRPRPYFFPRP,-0.706
10,RRIRERPPRLPRPRPRPQPDPRP,-0.258
11,RRIRGRPPRLPRPRPRPANGPRP,0.378
12,RRIRLRPPRLPRPRPRPIVIPRP,-1.37
13,RRIRPRPPRLPRPRPRPIAPPRP,0.265
14,RRIRIRPPRLPRPRPRPCNSPRP,-0.271
15,RRIRERPPRLPRPRPRPIKWPRP,-0.0383
16,RRIRGRPPRLPRPRPRPFMIPRP,-0.0383
17,RRIRTRPPRLPRPRPRPPNAPRP,0.535
18,RRIRQRPPRLPRPRPRPRIPPRP,0.206
19,RRIRQRPPRLPRPRPRPWATPRP,0.136
20,RRIRMRPPRLPRPRPRPRWDPRP,0.793

row,Sequence,shrunken log2 fold change
1,RRIRRRPPRLPRPRPRPFLRPRP,0.382
2,RRIRERPPRLPRPRPRPLKLPRP,-0.118
3,RRIRNRPPRLPRPRPRPPLGPRP,0.331
4,RRIRTRPPRLPRPRPRPIINPRP,-0.0706
5,RRIRERPPRLPRPRPRPEQQPRP,-0.0255
6,RRIRIRPPRLPRPRPRPACTPRP,0.242
7,RRIRHRPPRLPRPRPRPYTVPRP,0.0229
8,RRIRQRPPRLPRPRPRPYNNPRP,-1.04
9,RRIRMRPPRLPRPRPRPLHGPRP,0.108
10,RRIRTRPPRLPRPRPRPSWSPRP,-0.196
11,RRIRQRPPRLPRPRPRPAANPRP,0.0666
12,RRIRPRPPRLPRPRPRPKDEPRP,0.363
13,RRIRVRPPRLPRPRPRPGMNPRP,-0.145
14,RRIRRRPPRLPRPRPRPSYSPRP,-0.319
15,RRIRQRPPRLPRPRPRPYRPPRP,-0.103
16,RRIRVRPPRLPRPRPRPYIYPRP,-0.806
17,RRIRHRPPRLPRPRPRPLYPPRP,-0.804
18,RRIRERPPRLPRPRPRPKKYPRP,-0.518
19,RRIRYRPPRLPRPRPRPGEMPRP,-0.0218
20,RRIRTRPPRLPRPRPRPADAPRP,-0.0445

row,Sequence,shrunken log2 fold change
1,RRIRSRPPRLPRPRPRPFTYPRP,-0.0179
2,RRIRFRPPRLPRPRPRPPQCPRP,0.237
3,RRIRYRPPRLPRPRPRPDLYPRP,-0.0604
4,RRIRYRPPRLPRPRPRPQFSPRP,0.0125
5,RRIRKRPPRLPRPRPRPWTNPRP,-0.0144
6,RRIRARPPRLPRPRPRPFQEPRP,0.127
7,RRIRYRPPRLPRPRPRPFTYPRP,-0.529
8,RRIRNRPPRLPRPRPRPKQIPRP,-0.294
9,RRIRPRPPRLPRPRPRPLYMPRP,-0.673
10,RRIRPRPPRLPRPRPRPIPGPRP,0.0171
11,RRIRDRPPRLPRPRPRPRAKPRP,0.208
12,RRIRNRPPRLPRPRPRPMDAPRP,0.101
13,RRIRRRPPRLPRPRPRPRPIPRP,0.945
14,RRIRFRPPRLPRPRPRPIFTPRP,-0.128
15,RRIRERPPRLPRPRPRPAIIPRP,-0.259
16,RRIRLRPPRLPRPRPRPVWSPRP,0.0624
17,RRIRERPPRLPRPRPRPGQKPRP,0.2
18,RRIRNRPPRLPRPRPRPDNPPRP,-0.168
19,RRIRWRPPRLPRPRPRPGKRPRP,0.37
20,RRIRNRPPRLPRPRPRPSNWPRP,-0.203
